Measurements published in US20250090700A1 (published 2025).

Target: synthetic sugar epitope
Experiment: Biacore (SPR)

Row | Kd | Binder
1 | 3.9 nM | IgG1 (antibody, V domains shown) VH: QVQLVQSGAEVKKPGASVKVSCKASGFSFTTYWITWVRQAPGQGLEWIGMIHPSDAETRLSQTFKDKATLTADKSTSTAYMELSSLRSEDTAVYYCARDFDVWGQGTLVTVSS VL: DVVMTQSPLSLPVTLGQPASISCRSSQNIVHQNGQTYLGWYLQKPGQSPQLLIFRVSNRFSGVPDRFSGSGSGTDFTLKISRVEAEDVGVYYCFQGSHIPRTFGQGTRLEIK
2 | 3.1 nM | IgG4PE (antibody, V domains shown) VH: QVQLVQSGAEVKKPGASVKVSCKASGFSFTTYWITWVRQAPGQGLEWIGMIHPSDAETRLSQTFKDKATLTADKSTSTAYMELSSLRSEDTAVYYCARDFDVWGQGTLVTVSS VL: DVVMTQSPLSLPVTLGQPASISCRSSQNIVHQNGQTYLGWYLQKPGQSPQLLIFRVSNRFSGVPDRFSGSGSGTDFTLKISRVEAEDVGVYYCFQGSHIPRTFGQGTRLEIK
